Data taken from patent publication US20220008570A1.

Target: human CD33 (human) (UniProt P20138)
Assay: cell-based or functional assay

UniProt P20138, sequence (P20138 18-364 limits assumed): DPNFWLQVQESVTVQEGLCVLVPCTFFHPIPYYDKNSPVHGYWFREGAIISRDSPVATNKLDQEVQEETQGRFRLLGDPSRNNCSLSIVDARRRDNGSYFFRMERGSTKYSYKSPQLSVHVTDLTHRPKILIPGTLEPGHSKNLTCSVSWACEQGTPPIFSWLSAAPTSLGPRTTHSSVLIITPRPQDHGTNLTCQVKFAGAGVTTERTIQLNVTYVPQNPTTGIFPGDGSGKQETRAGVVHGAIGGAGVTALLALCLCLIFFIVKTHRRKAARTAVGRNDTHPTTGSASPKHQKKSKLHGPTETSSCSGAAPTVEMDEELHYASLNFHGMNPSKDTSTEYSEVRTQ

Lintuzumab conjugated with Actinium-225 (Ac225) (antibody)
LD50 (dose at which 50% of the cells were killed), cytotoxicity on HL60 leukemia cell suspensions: 8 pCi per mL
